Molecular target: human Met receptor (human) (UniProt P08581)
Experiment: cell-based or functional assay

Sequence of UniProt P08581 (P08581 25-1390): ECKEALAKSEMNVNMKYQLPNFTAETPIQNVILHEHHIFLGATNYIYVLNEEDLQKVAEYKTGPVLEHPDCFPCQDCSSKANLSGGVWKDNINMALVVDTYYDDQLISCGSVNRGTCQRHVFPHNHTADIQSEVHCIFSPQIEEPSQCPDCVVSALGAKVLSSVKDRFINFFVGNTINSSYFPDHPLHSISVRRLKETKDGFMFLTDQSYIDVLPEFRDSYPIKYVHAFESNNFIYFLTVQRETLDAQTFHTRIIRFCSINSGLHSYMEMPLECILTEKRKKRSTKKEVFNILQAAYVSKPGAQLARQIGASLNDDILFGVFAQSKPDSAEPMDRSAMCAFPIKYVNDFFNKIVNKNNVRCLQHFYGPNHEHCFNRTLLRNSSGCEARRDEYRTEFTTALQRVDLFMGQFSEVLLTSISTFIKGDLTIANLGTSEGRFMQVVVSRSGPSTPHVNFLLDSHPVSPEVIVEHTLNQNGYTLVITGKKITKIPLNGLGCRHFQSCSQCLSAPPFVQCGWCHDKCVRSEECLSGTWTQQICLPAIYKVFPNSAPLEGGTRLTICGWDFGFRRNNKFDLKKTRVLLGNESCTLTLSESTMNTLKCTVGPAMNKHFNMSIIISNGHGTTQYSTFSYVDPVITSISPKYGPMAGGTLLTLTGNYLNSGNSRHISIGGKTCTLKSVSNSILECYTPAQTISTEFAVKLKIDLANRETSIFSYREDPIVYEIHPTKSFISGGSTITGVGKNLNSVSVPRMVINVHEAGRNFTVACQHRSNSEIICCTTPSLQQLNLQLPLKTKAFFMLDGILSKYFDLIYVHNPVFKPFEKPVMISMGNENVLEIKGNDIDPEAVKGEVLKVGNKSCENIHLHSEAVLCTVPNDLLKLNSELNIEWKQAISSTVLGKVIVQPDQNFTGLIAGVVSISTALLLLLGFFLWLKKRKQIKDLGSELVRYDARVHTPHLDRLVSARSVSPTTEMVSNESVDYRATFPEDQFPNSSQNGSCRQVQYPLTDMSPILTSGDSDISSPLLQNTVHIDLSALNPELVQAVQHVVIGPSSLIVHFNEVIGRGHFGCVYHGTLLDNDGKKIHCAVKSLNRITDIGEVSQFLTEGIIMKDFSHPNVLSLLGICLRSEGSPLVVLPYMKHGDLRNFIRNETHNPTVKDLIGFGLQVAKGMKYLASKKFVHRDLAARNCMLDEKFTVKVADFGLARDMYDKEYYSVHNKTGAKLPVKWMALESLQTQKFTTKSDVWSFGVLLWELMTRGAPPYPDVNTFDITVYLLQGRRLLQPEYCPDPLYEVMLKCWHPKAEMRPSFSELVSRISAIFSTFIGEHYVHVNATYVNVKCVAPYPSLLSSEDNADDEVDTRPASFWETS

growth of subcutaneous SK-LMS-1 (high Met) xenografts in hHGF Tg scid mice against control scid mice: 3 fold
Substance: human hepatocyte growth factor/scatter factor (hHGF/SF) (from UniProt P14210 32-728) (ligand)

— patent US7968762
